Experimental data published in patent publication US6323185.

Assays:
[1] = target: HIV-1 integrase wild-type (IN1-288) (HIV-1) (UniProt P12497); experiment: inhibition; details: 3'-processing
[2] = target: T1, SIV integrase (Simian immunodeficiency virus) (UniProt P05897); experiment: inhibition; details: PS at first and last internucleoside linkages, 3'-OH; 3'-processing
T1 sequence: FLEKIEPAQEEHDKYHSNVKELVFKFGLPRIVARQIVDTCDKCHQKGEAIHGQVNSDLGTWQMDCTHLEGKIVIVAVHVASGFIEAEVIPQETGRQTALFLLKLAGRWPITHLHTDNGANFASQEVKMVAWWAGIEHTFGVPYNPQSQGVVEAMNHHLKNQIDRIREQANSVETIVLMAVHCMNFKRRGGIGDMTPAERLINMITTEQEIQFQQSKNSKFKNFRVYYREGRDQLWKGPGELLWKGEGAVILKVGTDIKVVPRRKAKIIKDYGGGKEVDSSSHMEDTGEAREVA

TCTTCCTCTCTCTACCCACGCTCIC [T30662 antisense GEM91 variant pPT]
IC50 ([1]; PS at first and last linkages, strand transfer >0.5 uM): > 500 nM

TCTTCCTCTCTCTACCCACGCTCIC [T30658 antisense GEM91 variant PD]
IC50 ([1]; all phosphodiester, strand transfer >0.5 uM): > 500 nM

GTGGTGGGTGGGTGGGT [T30177 (AR177, Zintevir)]
IC50 [2]: 420 nM

TCTTCCTCTCTCTACCCACGCTCIC [T30531 antisense GEM91 variant PT]
IC50 ([1]; all PS, strand transfer 0.036 uM): 30 nM
